From IntAct's records for PubMed 11297558

B1: Adhesion G protein-coupled receptor E2 (Homo sapiens), Q9UHX3 (parent)
chain: MGGRVFLVFLAFCVWLTLPGAETQDSRGCARWCPQDSSCVNATACRCNPGFSSFSEIITTPMETCDDINECATLSKVSCGKFSDCWNTEGSYDCVCSPGYEPVSGAKTFKNESENTCQDVDECQQNPRLCKSYGTCVNTLGSYTCQCLPGFKLKPEDPKLCTDVNECTSGQNPCHSSTHCLNNVGSYQCRCRPGWQPIPGSPNGPNNTVCEDVDECSSGQHQCDSSTVCFNTVGSYSCRCRPGWKPRHGIPNNQKDTVCEDMTFSTWTPPPGVHSQTLSRFFDKVQDLGRDYKPGLANNTIQSILQALDELLEAPGDLETLPRLQQHCVASHLLDGLEDVLRGLSKNLSNGLLNFSYPAGTELSLEVQKQVDRSVTLRQNQAVMQLDWNQAQKSGDPGPSVVGLVSIPGMGKLLAEAPLVLEPEKQMLLHETHQGLLQDGSPILLSDVISAFLSNNDTQNLSSPVTFTFSHRSVIPRQKVLCVFWEHGQNGCGHWATTGCSTIGTRDTSTICRCTHLSSFAVLMAHYDVQEEDPVLTVITYMGLSVSLLCLLLAALTFLLCKAIQNTSTSLHLQLSLCLFLAHLLFLVAIDQTGHKVLCSIIAGTLHYLYLATLTWMLLEALYLFLTARNLTVVNYSSINRFMKKLMFPVGYGVPAVTVAISAASRPHLYGTPSRCWLQPEKGFIWGFLGPVCAIFSVNLVLFLVTLWILKNRLSSLNSEVSTLRNTRMLAFKATAQLFILGCTWCLGILQVGPAARVMAYLFTIINSLQGVFIFLVYCLLSQQVREQYGKWSKGIRKLKTESEMHTLSSSAKADTSKPSTVN
B2: Adhesion G protein-coupled receptor E5 (Homo sapiens), P48960 (parent)
chain: MGGRVFLAFCVWLTLPGAETQDSRGCARWCPQNSSCVNATACRCNPGFSSFSEIITTPTETCDDINECATPSKVSCGKFSDCWNTEGSYDCVCSPGYEPVSGAKTFKNESENTCQDVDECQQNPRLCKSYGTCVNTLGSYTCQCLPGFKFIPEDPKVCTDVNECTSGQNPCHSSTHCLNNVGSYQCRCRPGWQPIPGSPNGPNNTVCEDVDECSSGQHQCDSSTVCFNTVGSYSCRCRPGWKPRHGIPNNQKDTVCEDMTFSTWTPPPGVHSQTLSRFFDKVQDLGRDSKTSSAEVTIQNVIKLVDELMEAPGDVEALAPPVRHLIATQLLSNLEDIMRILAKSLPKGPFTYISPSNTELTLMIQERGDKNVTMGQSSARMKLNWAVAAGAEDPGPAVAGILSIQNMTTLLANASLNLHSKKQAELEEIYESSIRGVQLRRLSAVNSIFLSHNNTKELNSPILFAFSHLESSDGEAGRDPPAKDVMPGPRQELLCAFWKSDSDRGGHWATEGCQVLGSKNGSTTCQCSHLSSFAILMAHYDVEDWKLTLITRVGLALSLFCLLLCILTFLLVRPIQGSRTTIHLHLCICLFVGSTIFLAGIENEGGQVGLRCRLVAGLLHYCFLAAFCWMSLEGLELYFLVVRVFQGQGLSTRWLCLIGYGVPLLIVGVSAAIYSKGYGRPRYCWLDFEQGFLWSFLGPVTFIILCNAVIFVTTVWKLTQKFSEINPDMKKLKKARALTITAIAQLFLLGCTWVFGLFIFDDRSLVLTYVFTILNCLQGAFLYLLHCLLNKKVREEYRKWACLVAGGSKYSEFTSTTSGTGHNQTRALRASESGI

Variants of: B1
Settings: with daf_human CD55, P08174
Sequence of daf_human CD55, P08174 (P08174 whole entry): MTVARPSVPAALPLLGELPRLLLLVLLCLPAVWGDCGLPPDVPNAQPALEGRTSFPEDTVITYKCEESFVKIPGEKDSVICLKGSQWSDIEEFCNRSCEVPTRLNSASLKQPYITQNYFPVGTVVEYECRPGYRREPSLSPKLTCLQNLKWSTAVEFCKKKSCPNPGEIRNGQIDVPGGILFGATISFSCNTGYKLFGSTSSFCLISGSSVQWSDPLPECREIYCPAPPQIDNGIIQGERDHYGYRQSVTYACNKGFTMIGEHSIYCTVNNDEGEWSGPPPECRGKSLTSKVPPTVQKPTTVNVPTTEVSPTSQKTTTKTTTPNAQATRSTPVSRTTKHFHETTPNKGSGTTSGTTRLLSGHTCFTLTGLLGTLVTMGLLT
M62T was tested, and the “effect of a mutation on the interaction” value was “causing an interaction”. L74P was tested, and the “effect of a mutation on the interaction” value was “causing an interaction”. For D36N, the “effect of a mutation on the interaction” value was “causing an interaction”.

Variants of: B2
Settings: with daf_human CD55, P08174
With N33D the “effect of a mutation on the interaction” value was “decreasing interaction strength”. In the case of T59M, the “effect of a mutation on the interaction” value is reported as “decreasing interaction strength”. P71L was tested, and the “effect of a mutation on the interaction” value was “decreasing interaction strength”.
